In US20210238249:

How the values were obtained:
[1] = biological target: fusion protein TOM70-(GGGGS)3-UB-p53 (UniProt P07213)
[2] = biological target: recombinant fusion protein TOM70-UB-p53 (UniProt P07213)

Substance: UBP1 enzyme
- cleavage of the ubiquitin sequence by UBP1, 37 C for 1 hour, SDS-PAGE [1]: the 3′ end of ubiquitin was cleaved by UBP1 enzyme, and only p53 protein was dissociation as expected
- cleavage of the ubiquitin sequence by UBP1, 37 C for 1 hour, SDS-PAGE [2]: the dissociation of the ubiquitin protein from the fusion protein did not occur at all by UBP1
